The nature of series [1]: Optimum activity conditions of sEEH, nEEH and rEEH. In kind it is biochemical. The method, then:
After cloning the genes into pET-24a (+) expression vector, the vector was introduced into BL21-CondonPlus(DE3)-RP (Novagen), and then separated by SDS-PAGE. […] Also, the optimum activities of sEEH, nEEH, and rEEH occurred at neutral pH and mesophilic conditions (30 to 40° C.).

Series [2] can be described thus: Enantioselective hydrolyzing activity of purified EHases toward SO. In kind it is biochemical. The conditions noted are these: for enantiomer preference in hydrolysis of styrene oxide, in words: purified enzyme. The method, then:
(§1) Kinetic parameters of the rEEH1, rEEH2, rEEH3, sEEH, nEEH, and rEEH were determined by a GC analysis using (R)- or (S)- styrene oxide substrate. 100 ul of purified EHases were mixed with various concentrations of (R)- or (S)- styrene oxide in a 10 ml tube containing 1 ml of potassium phosphate buffer (100 mM, pH 8.0), and shake-incubated at 200 rpm and a temperature of 30° C. The extraction mixtures were extracted with 2 ml of hexane, and enantiomeric excess [ee; ee=100×(S−R)/(S+R)] toward enantiopure styrene oxide was analyzed with a chiraldex gamma-cyclodextrin trifluoroacetyl(G-TA) capillary GC column. Wherein, the FIG. 8 was diagramed with GC analysis for the hydrolyzing activities of enantioselective EHases (rEEH1, rEEH2, and rEEH3) toward racemic styrene oxide.
(§2) Kinetic parameters were estimated by non-linear regression analysis using a Sigma Plot program, and various substrates as depicted in FIG. 1 were also tested for the enantioselective hydrolyzing activity by rEEH1, rEEH2, rEEH3, sEEH, nEEH, and rEEH.

Substrate in series [3]: c1ccc([C@@H]2CO2)cc1
Put plainly: Kinetic parameters of purified sEEH by GC analysis with (R)- or (S)-styrene oxide. In kind it is biochemical, Sphingopyxis alaskensis. The conditions noted are these: other: 100 mM potassium phosphate pH 8.0, 30° C. How it is done:
as §1, §2

Substrate in series [4]: c1ccc([C@H]2CO2)cc1
The series is described as above. In kind it is biochemical, Sphingopyxis alaskensis. The conditions noted are these: other: 100 mM potassium phosphate pH 8.0, 30° C. The method, then: as §1, §2

Substrate in series [5]: c1ccc([C@@H]2CO2)cc1
The experiment in a line: Kinetic parameters of purified nEEH by GC analysis with (R)- or (S)-styrene oxide. In kind it is biochemical, Novosphingobium aromaticivorans. The conditions noted are these: other: 100 mM potassium phosphate pH 8.0, 30° C. The method, then: as §1, §2

Substrate in series [6]: c1ccc([C@H]2CO2)cc1
Described as above. In kind it is biochemical, Novosphingobium aromaticivorans. The conditions noted are these: other: 100 mM potassium phosphate pH 8.0, 30° C. How it is done: as §1, §2

A short description of series [7]: Kinetic parameters of purified EHases by GC analysis, (R)-styrene oxide. In kind it is biochemical. The conditions noted are these: (R)-enantiomer of styrene oxide, Table 5. How it is done: as §1, §2
Series [8] can be described thus: Enantioselective hydrolyzing activity of purified EHases toward ECH. In kind it is biochemical. How it is done: as §1, §2
Series [9] is described as follows: Enantioselective hydrolyzing activity of purified EHases toward EX. In kind it is biochemical. The method, then:
as §1, §2

A short description of series [10]: Effects of pH and temperature on the EHase activity of rEEH1, rEEH2 and rEEH3. In kind it is biochemical. The method, then:
The effect of pH on the EHase activity was measured with 50 mM sodium acetate-acetic acid buffer (pH 4.0 and 6.0), 50 mM MES buffer (pH 6.0 to 7.0), 50 mM Phosphate buffer (pH 7.0 to 9.0), and 50 mM Glycine buffer (pH 9.0 and 10.0), and the optimum reaction temperature on the EHase activity was measured over a temperature of range from 10 to 70° C. at pH 7.5.

A short description of series [11]: Enantioselective hydrolyzing activity of purified EHases toward EB. In kind it is biochemical. How it is done:
as §1, §2

Series [12] in a line: Kinetic parameters of purified EHases by GC analysis, (S)-styrene oxide. In kind it is biochemical. The conditions noted are these: (S)-enantiomer of styrene oxide, Table 5. The method, then:
as §1, §2

The nature of series [13]: Enantioselective hydrolyzing activity of purified EHases toward GPE. In kind it is biochemical. The method, then: as §1, §2
Substrate in series [14]: c1ccc([C@@H]2CO2)cc1
Put plainly: Kinetic parameters of purified rEEH2 by GC analysis with (R)- or (S)-styrene oxide. The conditions noted are these: other: 100 mM potassium phosphate pH 8.0, 30° C. In kind it is biochemical, Erythrobacter litoralis HTCC2594. The method, then: as §1, §2

Substrate in series [15]: c1ccc([C@H]2CO2)cc1
Described as above. In kind it is biochemical, Erythrobacter litoralis HTCC2594. The conditions noted are these: other: 100 mM potassium phosphate pH 8.0, 30° C. How it is done:
as §1, §2

Substrate in series [16]: c1ccc([C@@H]2CO2)cc1
Put plainly: Kinetic parameters of purified rEEH by GC analysis with (R)- or (S)-styrene oxide. In kind it is biochemical, Rhodobacterium sp. HTCC2654. The conditions noted are these: other: 100 mM potassium phosphate pH 8.0, 30° C. The method, then:
as §1, §2

Substrate in series [17]: c1ccc([C@H]2CO2)cc1
The series is described as above. In kind it is biochemical, Rhodobacterium sp. HTCC2654. The conditions noted are these: other: 100 mM potassium phosphate pH 8.0, 30° C. How it is done: as §1, §2

For orientation: Km means the substrate concentration at which the rate is half of its maximum. What is called Vmax is the rate approached at saturating substrate. Broadly, the kcat is the maximal rate divided by the concentration of active sites. The term kcat/Km denotes the turnover number divided by the Michaelis constant.

Values joined by “and” are separate entries in the source; they are usually repeats but may differ in a detail not shown here. Equal values may be shown once.

B1: sEEH: 49 kDa epoxide hydrolase purified from Sphingopyxis alaskensis, SEQ ID NO: 28 (protein, listed as Erythrobacter litoralis)
chain: MSPAKSISLRRLLSTAISVAALGMTLQSSPSFASSAGPSTAITVSAAAAVAAPQDESIRPFHVSIPEEALTDLRRRLAETRWPDREKVSDASQGVQLDRLEPLVRYWGTDYDWRKGEARLNAVPQFITTIDGLDIQFIHIRSKHKGAMPLLMTHGWPGSPFELLKTVGPLTDPTAHGGKAEDAFDLIMPTYPGYGFSGKPNEAWDPARVARAWDVLMKRLGYKNYVSQGGDWGAIISQVLAVQAPEGLLGIHTNMPGTVPPGVLKLVRAKQPAPDSYSPEEKIAYAGLETFYGKGFGYAEMMNTRPQTLGYGLSDSPVGLAAFLYEKIATWTDSGGNPESVLTRDEILDNITLYWLTNTGTSSSRSYWDAAQGPGGPFNAIEISKVPVAVTVFPGEIYRAPRSWGEKSFKKLIYWNEVDKGGHFAAWEQPELFAAEIRAAFRPLREKK
Consider B1, for which, in series [1], the “optimum pH” value is reported as “neutral pH”. Besides, the “enantiomer preference in hydrolysis of styrene oxide, in words” value (“enantiomer preference in hydrolysis” for short) in [2] is reported as “not enantioselective”.

B2: Sphingopyxis alaskensis epoxide hydrolase sEEH (Sp), SEQ ID NO: 28 (Sphingopyxis alaskensis RB2256) (protein)
chain: SSAGPSTAITVSAAAAVAAPQDESIRPFHVSIPEEALTDLRRRLAETRWPDREKVSDASQGVQLDRLEPLVRYWGTDYDWRKGEARLNAVPQFITTIDGLDIQFIHIRSKHKGAMPLLMTHGWPGSPFELLKTVGPLTDPTAHGGKAEDAFDLIMPTYPGYGFSGKPNEAWDPARVARAWDVLMKRLGYKNYVSQGGDWGAIISQVLAVQAPEGLLGIHTNMPGTVPPGVLKLVRAKQPAPDSYSPEEKIAYAGLETFYGKGFGYAEMMNTRPQTLGYGLSDSPVGLAAFLYEKIATWTDSGGNPESVLTRDEILDNITLYWLTNTGTSSSRSYWDAAQGPGGPFNAIEISKVPVAVTVFPGEIYRAPRSWGEKSFKKLIYWNEVDKGGHFAAWEQPELFAAEIRAAFRPLREKK
Consider B2, for which, in series [3], the Km is listed as 4 ± 0.3 mM, the Vmax is 8.9 µmol/min/mg, the kcat worked out at 7.42 s⁻¹ and the kcat/Km came out at 1860 M⁻¹ s⁻¹. Moreover, in [4], the Michaelis-Menten constant (Km) is 5.25 ± 0.3 mM, the maximum rate (Vmax) amounted to 12.1 µmol/min/mg, the catalytic constant (kcat) was found to be 10.1 s⁻¹ and the kcat/Km worked out at 1920 M⁻¹ s⁻¹.

B3: Novosphingobium aromaticivorans epoxide hydrolase nEEH (Novo), SEQ ID NO: 30 (Novosphingobium aromaticivorans DSM 12444) (protein)
chain: MNVAPFVVDIPRGEIEDLHRRIDMTRWPEKETVDDWSQGTPLGALQDFVSYWRGGYDWYACQRMLNDWGMFETEIDGVAIRFLHVRSAQADARPLLLTHGWPGSILEFRRCIAPLTRPEEHGGTAADAFHLVIPCLPGYGFSGKPTRKGWSVQKIAQAWGELMKRLGYESWLAQGGDWGSAVTTAIGALKVEGCAGIHLNMPIARPLPEDLAAPTPEELRALTALQHYQDWDSGYSKEQATRPQTVGYGLVDSPVGLAGWIYEKMWAWTDNEGAPEDALSRDDMLDNIMLYWLTAAGASSARLYWESFASFGPSQIDIPAAASAFPKEIIPAPRKWFERNCSKLVYWGELEKGGHFAAWEQPEAFVKELRAAFSLMC
In the case of B3, in series [1], the “optimum pH” value is on record as “neutral pH”. In addition, in [2], the “enantiomer preference in hydrolysis” value is on record as “not enantioselective”. In addition, in series [5], the Km was 6 ± 0.3 mM, the Vmax came to 40 µmol/min/mg, the kcat came out at 27.8 s⁻¹ and the kcat/Km worked out at 4630 M⁻¹ s⁻¹. In series [6], the Km amounted to 4 ± 0.3 mM, the Vmax amounted to 18.7 µmol/min/mg, the kcat amounted to 13 s⁻¹ and the specificity constant (kcat/Km) is 3240 M⁻¹ s⁻¹.

B4: Erythrobacter litoralis HTCC2594 epoxide hydrolase rEEH2 (EEH2), SEQ ID NO: 15 (Erythrobacter litoralis HTCC2594) (protein)
chain: MAGPSLGEWKAKAQHFAYDGLQIAFWTGGKPDARPLLLVHGYPTASWDWHRVWETLGSKYHLVAPDMIGFGLSDKPRSGYSIHRQADMHVALLDHLGIGAFDALVHDYGVSVGQELLARRAERSAAQGLGQTVFLNGGIFPDQHRPRPIQKLGTSPLGFLVGLLTNREKFGRSFSEVFGPDTQPGAQELDEFWDLVSHNGGNRIMHKLLHYIADRKEHAERWFDALRIAQGDIGLINGALDPVSGRHAYEAWRERLPDARHHLIPTVGHYPQVEDPQTVSRVTLDWLAR
notes: soluble-EH-like alpha/beta hydrolase
On to B4, for which the results for the “kcat Km” value in series [7] and in series [12] were 300 M⁻¹ s⁻¹ and 200 M⁻¹ s⁻¹, respectively. The “Hydrolysis rate ECH (R)” value in [8] ((R)-enantiomer) is on record as 0.23 (×10^−2) mg/min. Further, the “Hydrolysis rate ECH (S)” value in [8] ((S)-enantiomer) is reported as 0.23 (×10^−2) mg/min. The “Hydrolysis rate EX (R)” value in series [9] ((R)-enantiomer) was 0.07 (×10^−2) mg/min. In addition, the “Hydrolysis rate EX (S)” value in series [9] ((S)-enantiomer) is given as 0.07 (×10^−2) mg/min. In series [10] (10 to 70° C. at pH 7.5), the “optimum temperature (maximum hydrolysis rate)” value is 55 °C. Moreover, the “optimum pH” value in series [10] (activity toward styrene oxide, pH 4.0 to 10.0) is 7.5. For the same molecule, the “Hydrolysis rate EB (R)” value in [11] ((R)-enantiomer) is 0.08 (×10^−2) mg/min. Moreover, the “Hydrolysis rate EB (S)” value in [11] ((S)-enantiomer) is given as 0.08 (×10^−2) mg/min. Besides, in series [2] ((R)-enantiomer), the “Hydrolysis rate SO (R)” value was 0.05 (×10^−2) mg/min. Further, the “Hydrolysis rate SO (S)” value in series [2] ((S)-enantiomer) is reported as 0.06 (×10^−2) mg/min. Besides, the “enantiomer preference in hydrolysis” value in series [2] was “both of (S)-styrene oxide and (R)-styrene oxide were hydrolyzed at an equal rate”. The “Hydrolysis rate GPE (R)” value in [13] ((R)-enantiomer) is 0.06 (×10^−2) mg/min. Besides, in [13] ((S)-enantiomer), the “Hydrolysis rate GPE (S)” value is recorded as 0.07 (×10^−2) mg/min. For the same molecule, the Km in series [14] is 5.49 mM and 5.4 mM; in series [15], 6.18 mM and 6.1 mM. Besides, the maximal velocity (Vmax) in series [14] was 0.11 µmol/min and 0.1 µmol/min; in series [15], 0.12 µmol/min and 0.1 µmol/min. The turnover number (kcat) came out at 1.6 s⁻¹ in [14] and 1.7 s⁻¹ in series [15].

B5: Rhodobacterium sp. HTCC2654 epoxide hydrolase rEEH (RH), SEQ ID NO: 32 (Maritimibacter alkaliphilus HTCC2654) (protein)
chain: MNDKTFIETNGIRLATRIEGDGPLVILVHGFPETAYSWRKQASPLVEAGYRVCIPDVRGYGNSDAPEAVSAYAMEVMTRDFLGLAQALSEVPAVIVGHDWGAPLAWNTARLFPEQFRAVAGLSVPYAPPGDVAPIDLYHKLFTDKGRFFYQVYFQDEGVAEAELEADVEDSLAKFYYAWSGDCPPNGWPNDKAHGDPVLKGLPRPDLPLPWLTQDDLDRYAADFRTSGFRGPLNRYRNQREDHAFLKAHPSNPIIQQPSLFLYGDRDPVLTMFRTPPEDLLPKTLADLRGVHRLPGVGHWTQQEAPEAVNKALIDWLATL
notes: as for B4
Turning to B5, the optimum temperature in series [1] was 30-40 °C. Further, the “enantiomer preference in hydrolysis” value in series [2] was “hydrolyzed (R)-enantiopure styrene oxide”. In series [16], the Michaelis constant (Km) is 5.2 ± 0.3 mM, the Vmax turned out to be 54.1 µmol/min/mg, the turnover number (kcat) came out at 32 s⁻¹ and the specificity constant (kcat/Km) was found to be 6160 M⁻¹ s⁻¹. For the same molecule, in series [17], the Michaelis-Menten constant (Km) was 4.1 ± 0.3 mM, the Vmax amounted to 11.3 µmol/min/mg, the turnover number (kcat) was 6.7 s⁻¹ and the specificity constant (kcat/Km) amounted to 1630 M⁻¹ s⁻¹.

Values taken from patent publication US8030048B2, “Enantioselective epoxide hydlrolase and method for preparing and enantiopure epoxide using the same” (Korea Ocean Research and Development Institute, priority 2005, dated 2011).
